Measured values from the DeepSol protein solubility set.

Assay: soluble on expression in E. coli; label from the status in PepcDB or PDB records

Sequence	soluble on expression in E. coli
SASVEGDDDFGSSSSRSYQDQLYTELWKVCAGPLVEVPRAQERVFYFPQGHMEQLVASTNQGINSEEIPVFDLPPKILCRVLDVTLKAEHETDEVYAQITLQPEEDQSEPTSLDPPIVGPTKQEFHSFVKILTASDTSTHGGFSVLRKHATECLPSLDMTQATPTQELVTRDLHGFEWRFKHIFRGQPRRHLLTTGWSTFVSSKRLVAGDAFVFLRGENGDLRVGVRRLARHQSTMPTSVISSQSMHLGVLATASHAVRTTTIFVVFYKPRISQFIVGVNKYMEAIKHGFSLGTRFRMRFEGEESPERIFTGTIVGSGDLSSQWPASKWRSLQVQWDEPTTVQRPDKVSPWEIEPFLATSPISTPAQQPQSKCKRSRPIEPSVKTPAPPSFLYSLPQSQDSINASLKLFQDPSLERISGGYSSNNSFKPETPPPPTNCSYRLFGFDLTSNSPAPIPQDKQPMDTCGAAKCQEPITPTSMSEQKKQQTSRSRTKVQMQGIAVGRAVDLTLLKSYDELIDELEEMFEIQGQLLARDKWIVVFTDDEGDMMLAGDDPWNEFCKMAKKIFIYSSDEVKKMTTKLKISSSLENEEYGNESFENRSRG	not soluble
SATALSEEELDNEDYYSLLNVRREASSEELKAAYRRLCMLYHPDKHRDPELKSQAERLFNLVHQAYEVLSDPQTRAIYDIYGKRGLEMEGWEVVERRRTPAEIREEFERLQREREERRLQQRTNPKGTISVGVDATDLFDRYDEEYEDVSGSSFPQIEINKMHISQSIEAPLTATDTAILSGSLSTQNGNGGGSINFALRRVTSAKGWGELEFGAGDLQGPLFGLKLFRNLTPRCFVTTNCALQFSSRGIRPGLTTVLARNLDKNTVGYLQWRWGIQSAMNTSIVRDTKTSHFTVALQLGIPHSFALISYQHKFQDDDQTRVKGSLKAGFFGTVVEYGAERKISRHSVLGAAVSVGVPQGVSLKVKELEKQRESAATDVLQKKQEAESAVRLMQESVRRIIEAEESRMGLIIVNAWYGKFVNDKSRKSEKVKVIDVTVPLQCLVKDSKLILTEASKAGLPGFYDPCVGEEKNLKVLYQFRGVLHQVMVLDSEALRIPKQSHRIDTDG	soluble
SDERHKTDIAPISDKVLDAWEKVKFYQYKFKDAVDEKGEEARYHFGVIAQQIVKVFEDEGLSAFDYGLVGYDEWEATEDEYDSEGNLVEKGREAGNIYSIRPTECQWLEMACMRRKLERLSLEHHHHHH	soluble
SDLFTDGDIFQDIVDAACKRRVPVYIILDEAGVKYFLEMCQDLQLTDFRIRNIRVRSVTGVGFYMPMGRIKGTLSSRFLMVDGDKVATGSYRFTWSSSHVDRNLLLLLTGQNVEPFDTEFRELYAISEEVDLYRQLSLAGRVGLHYSSTVARKLINPKYALVSGCRHPPGEMMRWAARQQWEAGGNPEGQEEGASGGESAWRLESFLKDLVTVEQVLPPVEPIPLGELSQKDGRMVSHMHRDLKPKSREAPSRNGMGEAARGEAAPARRFSSRLFSRRAKRPAAPNGMASSVSTETSEVEFLTGKRPNENSSADISGKTSPSSAKPSNCVIS	soluble
SDPVVLSYMDSLLRQSDVSLLDPPSWLNDHIIGFAFEYFANSQFHDCSDHVSFISPEVTQFIKCTSNPAEIAMFLEPLDLPNKRVVFLAINDNSNQAAGGTHWSLLVYLQDKNSFFHYDSHSRSNSVHAKQVAEKLEAFLGRKGDKLAFVEEKAPAQQNSYDCGMYVICNTEALCQNFFRQQTESLLQLLTPAYITKKRGEWKDLIATLAKK	soluble
SDSTAGTDAVAVGGTFQFHSPDGKMEIFYDEADRQQLPDIGGDSLMEEGTQINLSDFENQVVILNAWGQWCAPCRSESDDLQIIHEELQAAGNGDTPGGTVLGINVRDYSRDIAQDFVTDNGLDYPSIYDPPFMTAASLGGVPASVIPTTIVLDKQHRPAAVFLREVTSKDVLDVALPLVDEA	soluble
SEAAETEAEAAALEVLAEVAGILEPVGLQEEAELPAKILVEFVVDSQKKDKLLCSQLQVADFLQNILAQEDTAKGLDPLASEDTSRQKAIAAKEQWKELKATYREHVEAIKIGLTKALTQMEEAQRKRTQLREAFEQLQAKKQMAMEKRRAVQNQWQLQQEKHLQHLAEVSAEVRERKTGTQQELDGVFQKLGNLKQQAEQERDKLQRYQTFLQLLYTLQGKLLFPEAEAEAENLPDDKPQQPTRPQEQSTGDTMGRDPGVSFKAVGLQPAGDVNLP	soluble
